Test results published in article PMC8304084, “A Concerted Action of UBA5 C-Terminal Unstructured Regions Is Important for Transfer of Activated UFM1 to UFC1” (International Journal of Molecular Sciences, 2021).
Where two headings read alike, the source gives them in different places.

How the values were obtained:
UFC1 [1] = biological target: T1, UFC1 (Homo sapiens, UniProt Q9Y3C8); assay: ITC, UBA5 constructs vs UFC1; type: binding; details: for N: ITC stoichiometry; for N / ΔG / ΔS / −T*ΔS / KA*10^−6 / Kd: UFC1 titrated to full length UBA5; for N / ΔH / KA*10^−6: ± = fitting error; for ΔG / ΔS / −T*ΔS / ΔH / KA*10^−6 / Kd: ITC, 25 °C; for ΔH: UFC1 titrated to full length UBA5 (FL^1–404 or FL^1–404 C250K~UFM1), single profile; for ΔH / Kd: 25 mM HEPES pH 7.5, 100 mM NaCl; for KA*10^−6: value is KA × 10^−6; for Kd: VP-ITC, one-site model, single ITC profile
T1 construct: Full length UFC1, residues 1–167; modified ubiquitin tag (Ub19) with TEV site (N, cleaved yes); made in house; host or cells: E. coli T7 Express
T1 sequence (Q9Y3C8 1-167): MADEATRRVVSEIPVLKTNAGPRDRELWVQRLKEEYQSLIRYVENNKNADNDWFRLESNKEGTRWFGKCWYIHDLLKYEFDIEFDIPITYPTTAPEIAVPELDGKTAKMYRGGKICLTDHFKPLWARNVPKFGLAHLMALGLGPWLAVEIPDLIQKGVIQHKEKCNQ
Description: To understand how the UBA5 C-terminus participates in the ufmylation cascade, we performed isothermal titration calorimetry (ITC) experiments, in which we titrated UBA5 C-terminal peptides (see Table 1) to the UBA5 AD, UFC1, UFM1 and representative LC3/GABARAP proteins (Figure 2A, Supplementary Figure S2A–D and Table 2).
To investigate if conjugation of UFM1 to the UBA5 catalytic cysteine (C250) affects the UFC1:UBA5 interactions, we prepared full length UBA5 C250K mutant and stably conjugated UFM1 to it as reported before for a number of ubiquitin-specific E2 enzymes. We compared the UFC1 spectra after addition of a twofold molar excess of FL^1–404 and FL^1–404 C250K~UFM1 constructs (Supplementary Figure S5C).
All proteins and peptides were expressed in E.Coli T7 Express (New England Biolabs GmbH, Frankfurt, Germany) cells in LB or M9 (to obtain ^15N- and ^13C,^15N-labeled polypeptides) media according to the protocol described in [33, 36]. For protein purification, bacterial cell pellets were resuspended in lysis buffer (50 mM Tris-HCl pH = 7.5, 100 mM NaCl, 5% glycerol, 5 mM PIC (protease inhibitor cocktail)) and lysed via sonication (TT13 Sonotrode, 40% amplitude, for 6 × 1 min with a 0.5/0.5-s pulse). Lysates were centrifuged for 45 min at 17,000× g at 4 °C. Supernatants were loaded onto a His Trap Fast Flow 5 mL column (GE Healthcare, München, Germany) equilibrated in loading buffer (50 mM Tris-HCl pH = 8.0, 250 mM NaCl, 1% glycerol, 20 mM imidazole). The column was washed with loading buffer for 5–10 CV and protein was eluted with elution buffer (50 mM Tris-HCl pH = 8, 250 mM NaCl, 1% glycerol, 400 mM imidazole). Simultaneous TEV cleavage (1 mg TEV protease was added to 100 mg peptides/proteins) and buffer exchange to loading buffer via dialysis was performed over night at 4 °C. After reverse IMAC, proteins were concentrated with conical concentrators (Millipore Merck, Darmstadt, Germany) and loaded on a Superdex 10/60 75 or 200 column (GE Healthcare, München, Germany) for further purification and equilibration with ITC/NMR buffer (25 mM HEPES pH = 7.5, 100 mM NaCl). For structural NMR spectroscopy, buffer containing 50 mM Tris-HCl pH = 7.5, 100 mM NaCl was used. Prior to NMR experiments, TCEP and protease inhibitors cocktail were added to the samples to final concentrations 1 and 5 mM, respectively. Purified peptides and protein were concentrated and stored at −80 °C. The protein and peptide concentrations were calculated from the UV absorption at 280 nm by Nanodrop spectrophotometer (Thermo Scientific, Langenselbold, Germany).
All ITC experiments were performed at 25 °C using a VP-ITC microcalorimeter (Malvern Panalytical Ltd., Malvern, UK). Peptides in concentration of ~400 µM were titrated into 20–25 µM solutions of corresponding binding partner at a stirring speed of 307 rpm. The raw data were corrected on the dilution heat of peptides obtained in independent experiment (titration of the peptide in syringe into the ITC/NMR buffer in the measuring cell). Pre-titration delay was set to 180 s, interval between titration steps was experimentally adjusted to avoid kinetic contribution to the observed heat effects and set to 200 s. A single ITC profile was collected for each type of interaction. The ITC data were analyzed based on a “one-site” binding model with MicroCal ITC software implemented in Origin 7.0.

UFC1 [2] = biological target: T1, UFC1; assay: NMR titration with UFC1; type: binding; details: [15N,1H] TROSY-HSQC, 25 °C
Protocol: To understand the role of the UBA5 C-terminal region in coordination of the binding events reported above on the molecular level, we performed NMR titration experiments. […] It seems, that these UBA5 residues form additional interactions with UFC1.
All NMR experiments were performed at a sample temperature of 25 °C on Bruker 600, 700, 800, 900, and 950 MHz spectrometers equipped with cryogenic probes, and a 500 MHz spectrometer equipped with a room-temperature triple-resonance probe. All NMR spectra were analyzed with the Sparky 3.114 software (University of California, San Francisco, USA). For NMR titration experiments, the non-labeled UBA5 peptides were titrated to 100 µM ^13C,^15N-labeled UFC1 to a final molar ratio of 1:8 (UFC1:UBA5 peptide). Conversely, 100 µM ^13C,^15N-labeled UBA5 peptides were titrated with non-labeled UFC1 to a final molar ratio 1:4 (UBA5 peptide:UFC1). 2D ^1H-^15N correlation spectra ([^15N,^1H] TROSY-HSQC) were recorded at each titration point. The same types of spectra were recorded to estimate binding of ^13C,^15N-labeled UFC1 (75 µM) to non-labeled UBA5, UBA5~UFM1 and UFM1 at 1:2 molar ratios. CSP values, Δδ, were calculated for each individual amide group using the formula Δδ = [(ΔδN/5)^2 + Δδ^2HN)]^1/2.

UFM1 = biological target: T2, UFM1 (Homo sapiens, UniProt P61960); assay: Gel filtration and electrophoresis of UBA5 C250K~UFM1 conjugates with excess UFM1; type: binding; details: gel filtration, Superdex 200 10/300, 4 times molar excess of UFM1, electrophoretic analysis
T2 construct: Full length UFM1, residues 2–83; modified ubiquitin tag (Ub19) with TEV site (N, cleaved yes); made in house; host or cells: E. coli T7 Express
Description: Figure 4 Interaction studies between full length UBA5 and UFC1 proteins. (A) Gel electrophoresis of ufmylation assays including UBA5 FL^1–404 (left plot) and UBA5 ΔR3^1–380. (B) UFC1 binding to full length UBA5 (left plot) and full length stable UBA5~UFM1 conjugate (right plot) observed by ITC experiments. […] KD values are indicated. (C) Gel-filtration profiles of the FL^1–404 C250K~UFM1 conjugates in presence of 4 times molar excess of UFM1 (red lines) and UFC1 (black lines). The peak subjected to electrophoretic analysis is indicated by an asterisk. (D) Scheme of reactions involving UBA5 in the ufmylation cascade. The structures of UBA5 AD (brown), UFM1 (cyan) and UFC1 (grey) are represented as ribbon diagrams; the UBA5 unstructured C-terminus containing regions R1 (orange), R2 (green) and R3 (violet) is shown as dashed lines. The structures were generated from PDB entry 5IAA [29]. * indicates regions of another UBA5 molecule involved in the in trans transfer of UFM1.
For stable UBA5~UFM1 conjugation, 70 µM UFM1, 20 µM FL^1–404 C250K and 1 mM ATP were added to ufmylation reaction buffer (50 mM HEPES […], 100 mM NaCl, 5 mM MgCl2). For NMR analysis, resulting complexes were concentrated and equilibrated with ITC/NMR buffer. To analyze complex formation by ufmylation assay 300 µL of sample were loaded onto a Superdex 200 10/300 column (GE Healthcare, München, Germany).

UFC1 [3] = biological target: T1, UFC1; assay: In vitro thioester formation (ufmylation) assay, UFC1~UFM1 conjugate; type: biochemical; details: within 30 min; 70 µM UFM1, 20 µM UFC1, 20 µM UBA5 construct, 1 mM ATP, 50 mM HEPES pH 7.5, 22 °C; Western blot; triplicates
Protocol: First, we analyzed the effect of the UBA5 C-terminus on UFM1 transfer to UFC1 with an in vitro thioester formation assay (Figure 1B–E).
Ufmylation reaction assays were adopted from work of Xie. Briefly, 70 µM UFM1, 20 µM UFC1 and 20 µM of different UBA5 constructs were mixed in reaction buffer (50 mM HEPES pH = 7.5, 100 mM NaCl, 5 mM MgCl2). After starting the reaction with addition of 1 mM ATP, the reaction mix was incubated at 22 °C for the desired time. To quench the reaction and prepare electrophoretic samples, 1 µL of the reaction mix was added to 99 µL 1x non-reducing SDS loading buffer and frozen in liquid nitrogen. Sample content was visualized by sodium dodecyl sulfate polyacrylamide gel electrophoresis (SDS-PAGE). The transfer to polyvinylidene difluoride (PVDF) membrane was performed via a Trans-Blot® Turbo™ Transfer System (Bio-Rad, München, Germany). After transfer the membrane was blocked with TBST (Tris-buffered saline with Tween20 buffer, 20 mM Tris, 150 mM NaCl and 0.1% TWEEN 20) containing 5% w/v nonfat dry milk for 1 h, followed by α-UFC1 antibody incubation over night at 4 °C (ab189251 abcam, 1:10,000 in TBST containing 5% w/v nonfat dry milk). After washing with TBST the membrane was incubated with secondary antibody (anti-rabbit-HRP) for 1 h at RT and again washed with TBST. Detection was performed by addition of ECL solution. For quantification of UFC1 ufmylation coloc2 software implemented in ImageJ was used.

UFM1, UFC1 = details: cited from earlier work
Description: The role of this region is not understood, and no interacting proteins could be identified so far. […] Ufmylation is essential for embryonic development. The A371T mutation was described previously to be present in patients suffering from severe infantile-onset encephalopathy. […] Our ITC experiments with C-terminal UBA5 peptides containing the A371T or its phosphomimicking A371E mutations (loca ...

T2 sequence (P61960 2-83): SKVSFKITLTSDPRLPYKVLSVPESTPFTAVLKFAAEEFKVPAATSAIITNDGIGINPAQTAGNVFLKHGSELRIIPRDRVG

N (UFC1 [1])	ΔG (UFC1 [1])	ΔS (UFC1 [1])	−T*ΔS (UFC1 [1])	ΔH (UFC1 [1])	KA*10^−6 (UFC1 [1])	Kd (UFC1 [1])	non-conjugated UFM1 in conjugate peak (UFM1)	UFC1 conjugated to UFM1 (UFC1~UFM1) (UFC1 [3])	Substance	interaction with UFC1 (in words) (UFC1 [2])	effect of UBA5 A371T mutation on UFM1 activation / transfer (UFM1, UFC1)	effect of UBA5 A371T mutation on UFM1 activation / transfer (UFM1, UFC1; listed as A371T mutation)
1.03 ± 0.009	-8.10 kcal/mol	−0.34 cal mol^−1 K^−1	0.10 kcal/mol	-8.21 ± 0.01 kcal/mol	0.87 ± 0.05 M^−1	1200 nM	contains non-conjugated UFM1		FL^1–404 C250K~UFM1: full length UBA5 C250K mutant with UFM1 stably conjugated to it	no significant enhancement of the UBA5:UFC1 interaction		
0.97 ± 0.009	-8.00 kcal/mol	1.26 cal mol^−1 K^−1	-0.38 kcal/mol	-7.62 ± 0.01 kcal/mol	0.72 ± 0.04 M^−1	1400 nM		~ 90%	FL^1–404: Full length UBA5, residues 1–404	did not observe significant CSPs (shift or disappearance of the UFC1 resonances) in comparison to the spectra of the UFC1:R3^381–404W complex		
									UBA5 A371T mutant: A371T mutation in the human UBA5 protein, literature		slightly reduced UBA5 thioester conjugation with UFM1 and reduced enzymatic activity in trans-thioesterification of UFC1	decreases the ability of UBA5 to activate UFM1, to transfer the activated UFM1 to UFC1 and to mediate UFBP1~UFM1 formation
